# Data reported in IntAct's records for PubMed 28698298.
# B1: Eukaryotic translation initiation factor 4E type 2 (Homo sapiens), O60573-1 (parent)
# chain: MNNKFDALKDDDSGDHDQNEENSTQKDGEKEKTERDKNQSSSKRKAVVPGPAEHPLQYNYTFWYSRRTPGRPTSSQSYEQNIKQIGTFASVEQFWRFYSHMVRPGDLTGHSDFHLFKEGIKPMWEDDANKNGGKWIIRLRKGLASRCWENLILAMLGEQFMVGEEICGAVVSVRFQEDIISIWNKTASDQATTARIRDTLRRVLNLPPNTIMEYKTHTDSIKMPGRLGPQRLLFQNLWKPRLNVP
# partner: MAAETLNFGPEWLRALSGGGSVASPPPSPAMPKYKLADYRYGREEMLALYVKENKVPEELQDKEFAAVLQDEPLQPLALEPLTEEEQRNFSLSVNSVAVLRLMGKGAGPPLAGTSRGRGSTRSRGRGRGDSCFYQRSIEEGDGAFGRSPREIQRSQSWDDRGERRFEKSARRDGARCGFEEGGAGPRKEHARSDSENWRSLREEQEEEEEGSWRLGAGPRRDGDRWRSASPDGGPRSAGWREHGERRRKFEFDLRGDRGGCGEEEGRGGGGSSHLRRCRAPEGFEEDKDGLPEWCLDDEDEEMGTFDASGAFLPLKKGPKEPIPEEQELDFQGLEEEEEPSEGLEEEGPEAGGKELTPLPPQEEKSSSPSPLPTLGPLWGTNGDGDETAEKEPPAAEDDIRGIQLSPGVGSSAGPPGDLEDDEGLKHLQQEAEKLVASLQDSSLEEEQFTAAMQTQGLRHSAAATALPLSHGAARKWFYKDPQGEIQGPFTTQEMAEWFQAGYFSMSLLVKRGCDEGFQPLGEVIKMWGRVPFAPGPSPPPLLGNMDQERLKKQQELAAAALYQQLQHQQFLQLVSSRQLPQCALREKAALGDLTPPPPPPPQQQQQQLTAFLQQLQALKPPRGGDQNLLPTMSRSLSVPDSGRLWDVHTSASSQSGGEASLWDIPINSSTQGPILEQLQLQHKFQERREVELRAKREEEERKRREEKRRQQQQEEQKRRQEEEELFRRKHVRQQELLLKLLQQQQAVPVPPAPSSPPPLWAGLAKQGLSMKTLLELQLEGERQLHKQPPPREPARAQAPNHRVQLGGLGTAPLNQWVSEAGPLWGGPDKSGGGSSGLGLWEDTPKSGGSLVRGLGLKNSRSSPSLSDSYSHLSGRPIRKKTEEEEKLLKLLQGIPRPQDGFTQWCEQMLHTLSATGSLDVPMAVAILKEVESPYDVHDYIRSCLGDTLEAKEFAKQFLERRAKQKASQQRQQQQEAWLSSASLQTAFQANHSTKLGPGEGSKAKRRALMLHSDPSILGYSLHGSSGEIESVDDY
# B2: Eukaryotic translation initiation factor 4E type 2 (Homo sapiens), O60573-1 (parent)
# chain: B1 chain
# partner: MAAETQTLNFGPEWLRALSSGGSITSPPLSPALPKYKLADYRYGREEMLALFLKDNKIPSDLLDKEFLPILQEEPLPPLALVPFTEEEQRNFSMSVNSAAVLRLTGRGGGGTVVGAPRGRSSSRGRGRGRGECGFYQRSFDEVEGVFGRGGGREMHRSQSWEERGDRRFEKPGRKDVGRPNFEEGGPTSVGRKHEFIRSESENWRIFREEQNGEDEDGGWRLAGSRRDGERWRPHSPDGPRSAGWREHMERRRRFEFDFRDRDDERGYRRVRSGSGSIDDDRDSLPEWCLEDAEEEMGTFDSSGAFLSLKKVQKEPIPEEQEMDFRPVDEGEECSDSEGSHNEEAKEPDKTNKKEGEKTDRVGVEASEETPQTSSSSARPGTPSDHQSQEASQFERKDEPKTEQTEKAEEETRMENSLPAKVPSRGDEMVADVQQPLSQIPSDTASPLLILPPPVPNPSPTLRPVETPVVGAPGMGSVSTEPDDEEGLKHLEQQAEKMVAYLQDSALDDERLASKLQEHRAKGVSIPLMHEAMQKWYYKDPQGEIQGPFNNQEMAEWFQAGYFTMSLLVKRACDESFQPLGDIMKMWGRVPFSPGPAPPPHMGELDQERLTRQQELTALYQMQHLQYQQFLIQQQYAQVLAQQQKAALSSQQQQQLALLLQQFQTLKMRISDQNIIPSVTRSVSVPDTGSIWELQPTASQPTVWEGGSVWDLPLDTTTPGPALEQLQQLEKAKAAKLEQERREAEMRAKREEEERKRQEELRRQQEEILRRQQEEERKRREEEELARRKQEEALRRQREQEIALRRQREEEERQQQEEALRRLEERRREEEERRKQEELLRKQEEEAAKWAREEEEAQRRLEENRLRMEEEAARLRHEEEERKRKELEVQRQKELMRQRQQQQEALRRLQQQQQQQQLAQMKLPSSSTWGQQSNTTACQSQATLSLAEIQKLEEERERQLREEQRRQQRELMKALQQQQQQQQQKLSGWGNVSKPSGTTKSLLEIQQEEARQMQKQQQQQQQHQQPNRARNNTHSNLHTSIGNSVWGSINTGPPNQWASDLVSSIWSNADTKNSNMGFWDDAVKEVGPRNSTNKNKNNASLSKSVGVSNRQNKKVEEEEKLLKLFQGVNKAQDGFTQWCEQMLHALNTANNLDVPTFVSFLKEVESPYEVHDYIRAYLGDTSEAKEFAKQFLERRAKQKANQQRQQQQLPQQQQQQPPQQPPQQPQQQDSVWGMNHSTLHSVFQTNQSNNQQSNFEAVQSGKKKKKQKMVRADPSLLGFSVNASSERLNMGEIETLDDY
# Variants of: B1
# Conditions: with ggyf1_human GIGYF1, O75420
row,Variant,effect of a mutation on the interaction
1,MNNKFDALKDDDSGDHDQNEENSTQKDGEKEKTERDKNQSSSKRKAVVPGPAEHPLQYNYTFWYSRRTPGRPTSSQSYEQNIKQAGTFASVEQFARFYSHAVRPGDLTGHSDFHLFKEGIKPMWEDDANKNGGKWIIRLRKGLASRCWENLILAMLGEQFMVGEEICGAVVSVRFQEDIISIWNKTASDQATTARIRDTLRRVLNLPPNTIMEYKTHTDSIKMPGRLGPQRLLFQNLWKPRLNVP [I85A;W95A;M101A],disrupting interaction strength
2,MNNKFDALKDDDSGDHDQNEENSTQKDGEKEKTERDKNQSSSKRKAVVPGPAEHPLQYNYTFWYSRRTPGRPTSSQSYEQNIKQIGTFASVEQFARFYSHMVRPGDLTGHSDFHLFKEGIKPMWEDDANKNGGKWIIRLRKGLASRCWENLILAMLGEQFMVGEEICGAVVSVRFQEDIISIWNKTASDQATTARIRDTLRRVLNLPPNTIMEYKTHTDSIKMPGRLGPQRLLFQNLWKPRLNVP [W95A],disrupting interaction strength
3,MNNKFDALKDDDSGDHDQNEENSTQKDGEKEKTERDKNQSSSKRKAVVPGPAEHPLQYNYTFWYSRRTPGRPTSSQSYEQNIKQAGTFASVEQFWRFYSHAVRPGDLTGHSDFHLFKEGIKPMWEDDANKNGGKWIIRLRKGLASRCWENLILAMLGEQFMVGEEICGAVVSVRFQEDIISIWNKTASDQATTARIRDTLRRVLNLPPNTIMEYKTHTDSIKMPGRLGPQRLLFQNLWKPRLNVP [I85A;M101A],decreasing interaction strength

# Variants of: B1
# Conditions: with ggyf1_human GIGYF1, O75420
# Remark: another data set of the same source
row,Variant,effect of a mutation on the interaction
1,MNNKFDALKDDDSGDHDQNEENSTQKDGEKEKTERDKNQSSSKRKAVVPGPAEHPLQYNYTFWYSRRTPGRPTSSQSYEQNIKQIGTFASVEQFARFYSHMVRPGDLTGHSDFHLFKEGIKPMWEDDANKNGGKWIIRLRKGLASRCWENLILAMLGEQFMVGEEICGAVVSVRFQEDIISIWNKTASDQATTARIRDTLRRVLNLPPNTIMEYKTHTDSIKMPGRLGPQRLLFQNLWKPRLNVP [W95A],with no effect
2,MNNKFDALKDDDSGDHDQNEENSTQKDGEKEKTERDKNQSSSKRKAVVPGPAEHPLQYNYTFWYSRRTPGRPTSSQSYEQNIKQAGTFASVEQFWRFYSHAVRPGDLTGHSDFHLFKEGIKPMWEDDANKNGGKWIIRLRKGLASRCWENLILAMLGEQFMVGEEICGAVVSVRFQEDIISIWNKTASDQATTARIRDTLRRVLNLPPNTIMEYKTHTDSIKMPGRLGPQRLLFQNLWKPRLNVP [I85A;M101A],with no effect

# Variants of: B1
# Conditions: with ggyf1_human GIGYF1, O75420
# Remark: another data set of the same source
row,Variant,effect of a mutation on the interaction
1,MNNKFDALKDDDSGDHDQNEENSTQKDGEKEKTERDKNQSSSKRKAVVPGPAEHPLQYNYTFWYSRRTPGRPTSSQSYEQNIKQIGTFASVEQFWRFYSHMVRPGDLTGHSDFHLFKEGIKPMWEDDANKNGGKWIIRLRKGLASRCWENLILAMLGESFDVGEEICGAVVSVRFQEDIISIWNKTASDQATTARIRDTLREVLNLPPNTIMEYKTHTDSIKMPGRLGPQRLLFQNLWKPRLNVP [Q159S;M161D;R202E],with no effect

# Variants of: B2
# Conditions: with GIGYF2, Q6Y7W6-1
row,Variant,effect of a mutation on the interaction
1,MNNKFDALKDDDSGDHDQNEENSTQKDGEKEKTERDKNQSSSKRKAVVPGPAEHPLQYNYTFWYSRRTPGRPTSSQSYEQNIKQAGTFASVEQFWRFYSHAVRPGDLTGHSDFHLFKEGIKPMWEDDANKNGGKWIIRLRKGLASRCWENLILAMLGEQFMVGEEICGAVVSVRFQEDIISIWNKTASDQATTARIRDTLRRVLNLPPNTIMEYKTHTDSIKMPGRLGPQRLLFQNLWKPRLNVP [I85A;M101A],with no effect
2,MNNKFDALKDDDSGDHDQNEENSTQKDGEKEKTERDKNQSSSKRKAVVPGPAEHPLQYNYTFWYSRRTPGRPTSSQSYEQNIKQIGTFASVEQFARFYSHMVRPGDLTGHSDFHLFKEGIKPMWEDDANKNGGKWIIRLRKGLASRCWENLILAMLGEQFMVGEEICGAVVSVRFQEDIISIWNKTASDQATTARIRDTLRRVLNLPPNTIMEYKTHTDSIKMPGRLGPQRLLFQNLWKPRLNVP [W95A],with no effect

# Variants of: B2
# Conditions: with GIGYF2, Q6Y7W6-1
# Remark: another data set of the same source
row,Variant,effect of a mutation on the interaction
1,MNNKFDALKDDDSGDHDQNEENSTQKDGEKEKTERDKNQSSSKRKAVVPGPAEHPLQYNYTFWYSRRTPGRPTSSQSYEQNIKQAGTFASVEQFWRFYSHAVRPGDLTGHSDFHLFKEGIKPMWEDDANKNGGKWIIRLRKGLASRCWENLILAMLGEQFMVGEEICGAVVSVRFQEDIISIWNKTASDQATTARIRDTLRRVLNLPPNTIMEYKTHTDSIKMPGRLGPQRLLFQNLWKPRLNVP [I85A;M101A],decreasing interaction strength
2,MNNKFDALKDDDSGDHDQNEENSTQKDGEKEKTERDKNQSSSKRKAVVPGPAEHPLQYNYTFWYSRRTPGRPTSSQSYEQNIKQIGTFASVEQFARFYSHMVRPGDLTGHSDFHLFKEGIKPMWEDDANKNGGKWIIRLRKGLASRCWENLILAMLGEQFMVGEEICGAVVSVRFQEDIISIWNKTASDQATTARIRDTLRRVLNLPPNTIMEYKTHTDSIKMPGRLGPQRLLFQNLWKPRLNVP [W95A],decreasing interaction strength

# Variants of: B2
# Conditions: with ggyf2_human GIGYF2, Q6Y7W6
row,Variant,effect of a mutation on the interaction
1,MNNKFDALKDDDSGDHDQNEENSTQKDGEKEKTERDKNQSSSKRKAVVPGPAEHPLQYNYTFWYSRRTPGRPTSSQSYEQNIKQAGTFASVEQFWRFYSHAVRPGDLTGHSDFHLFKEGIKPMWEDDANKNGGKWIIRLRKGLASRCWENLILAMLGEQFMVGEEICGAVVSVRFQEDIISIWNKTASDQATTARIRDTLRRVLNLPPNTIMEYKTHTDSIKMPGRLGPQRLLFQNLWKPRLNVP [I85A;M101A],decreasing interaction strength
2,MNNKFDALKDDDSGDHDQNEENSTQKDGEKEKTERDKNQSSSKRKAVVPGPAEHPLQYNYTFWYSRRTPGRPTSSQSYEQNIKQIGTFASVEQFWRFYSHMVLPGDLTGHSDFHLFKEGIKPMWEDDANKNGGKWIIRLRKGLASRCWLNLILAMLGEQFMVGEEICGAVVSVRFQEDIISIWNKTASDQATTARIRDTLRRVLNLPPNTIMEYKTHTDSIKMPGRLGPQRLLFQNLWKPRLNVP [R103L;E149L],disrupting interaction strength
3,MNNKFDALKDDDSGDHDQNEENSTQKDGEKEKTERDKNQSSSKRKAVVPGPAEHPLQYNYTFWYSRRTPGRPTSSQSYEQNIKQIGTFASVEQFARFYSHMVRPGDLTGHSDFHLFKEGIKPMWEDDANKNGGKWIIRLRKGLASRCWENLILAMLGEQFMVGEEICGAVVSVRFQEDIISIWNKTASDQATTARIRDTLRRVLNLPPNTIMEYKTHTDSIKMPGRLGPQRLLFQNLWKPRLNVP [W95A],disrupting interaction strength

# Variants of: B2
# Conditions: with GIGYF2, Q6Y7W6-1
# Remark: another data set of the same source
row,Variant,effect of a mutation on the interaction
1,MNNKFDALKDDDSGDHDQNEENSTQKDGEKEKTERDKNQSSSKRKAVVPGPAEHPLQYNYTFWYSRRTPGRPTSSQSYEQNIKQIGTFASVEQFWRFYSHMVRPGDLTGHSDFHLFKEGIKPMWEDDANKNGGKWIIRLRKGLASRCWENLILAMLGESFDVGEEICGAVVSVRFQEDIISIWNKTASDQATTARIRDTLREVLNLPPNTIMEYKTHTDSIKMPGRLGPQRLLFQNLWKPRLNVP [Q159S;M161D;R202E],with no effect
